Tests used:
[1] = biological target: AP205 cVLP displaying SpyCatcher (SpyC-cVLP) (Acinetobacter phage AP205); assay: covalent SpyTag/SpyCatcher coupling shown by reduced SDS-PAGE with densitometry; FL PCSK9-SpyT in 100 mM HEPES, 500 mM NaCl, pH 7 mixed 1:1.2 (cVLP subunit per antigen) with SpyC-cVLP, HEPES to 250 mM and L-Arginine to 500 mM, overnight at 4 °C; coupling band on reduced SDS-PAGE; coupling efficiency by densitometry
[2] = biological target: AP205 cVLP displaying SpyTag (SpyT-cVLP) (Acinetobacter phage AP205); assay: covalent SpyTag/SpyCatcher coupling shown by reduced SDS-PAGE with densitometry; SpyT-cVLP and SpyC-PCSK9 antigen mixed in a 1:2 molar ratio in PBS, pH 7.4, overnight at 4 °C; coupling band on reduced SDS-PAGE; coupling efficiency = coupled cVLP subunits/(coupled + uncoupled cVLP subunits) by densitometry

Q: For “FL PCSK9-SpyT (muPCSK9(35–694) R221S-SpyT)”, which antigen coupling efficiency (percentage of binding sites per cVLP conjugated to an antigen) [1] is on record?
A: Its antigen coupling efficiency (percentage of binding sites per cVLP conjugated to an antigen) is 40%.

Q: For “SpyC-PCSK9(156–227) (from UniProt Q80W65 156-227)”, which antigen coupling efficiency (percentage of binding sites per cVLP conjugated to an antigen) [2] is on record?
A: The antigen coupling efficiency (percentage of binding sites per cVLP conjugated to an antigen) was 60%.

Q: For “SpyC-PCSK9(210–226) (from UniProt Q80W65 210-226)”, which antigen coupling efficiency (percentage of binding sites per cVLP conjugated to an antigen) [2] is on record?
A: Its antigen coupling efficiency (percentage of binding sites per cVLP conjugated to an antigen) is 80%.

— article PMC9864010
